Assay results reported in US6635440, “Method of isolation of RNA-binding compounds” (European Molecular Biology Laboratory).
Numbering of substitutions follows the chain as printed.

B1: U1Awt (U1 snRNA loop 2) GFP 5'UTR (ssRNA)
RNA: AAUUAUCUACUUAAGCGAUUGCACUCCCGCUUAAGAACACAAAACUCGAGAACAUAUUUUUAAUAUUAUG
B2: MSC GFP 5'UTR (ssRNA)
RNA: AAUUAUCUACUUAAGGACCAUCAGGCCUUAAGAACACAAAACUCGAGAACAUAUUUUUAAUAUUAUG
B3: MSA GFP 5'UTR (ssRNA)
RNA: B2 RNA with C22A

How the values were obtained:
U1A spliceosomal protein = U1A spliceosomal protein (UniProt P09012 P09012:2-282); experiment: cell_activity; GFP repression in yeast, galactose vs glucose; conditions: tags: expressed from YCpU1A in S. cerevisiae RS453; hairpin
Description: (§1) YCpU1A, YCpIRP-1 and YCpCP were used for the galactose inducible expression of U1A, IRP-1 and MS2 coat protein, respectively. These plasmids contain a URA3 selection marker. The sequences and nomenclature of the GFP reporter plasmids are described in FIG. 3. Binding site insertions are represented by Capital letters. Differences between wild type and mutated binding sites are indicated by arrows.
(§2) This reduction specifically requires the presence of the wild type binding site and the cognate binding protein, and is not seen with either the mutant binding sites (FIG. 4c and f) or the non-cognate binding proteins (FIGS. 4a and d).

MS2 coat protein = MS2 coat protein (Bacteriophage MS2, UniProt P03612 P03612:2-130); experiment: as above; conditions: tags: expressed from YCpCP in S. cerevisiae RS453; chain copies: 2; hairpin
Description: as §1, §2

Sequence of MS2 coat protein (P03612 2-130, one chain of several): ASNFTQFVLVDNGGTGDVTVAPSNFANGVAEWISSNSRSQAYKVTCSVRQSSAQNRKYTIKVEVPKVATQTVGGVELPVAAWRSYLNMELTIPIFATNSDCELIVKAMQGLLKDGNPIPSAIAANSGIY
Sequence of U1A spliceosomal protein (P09012 2-282, one chain of several): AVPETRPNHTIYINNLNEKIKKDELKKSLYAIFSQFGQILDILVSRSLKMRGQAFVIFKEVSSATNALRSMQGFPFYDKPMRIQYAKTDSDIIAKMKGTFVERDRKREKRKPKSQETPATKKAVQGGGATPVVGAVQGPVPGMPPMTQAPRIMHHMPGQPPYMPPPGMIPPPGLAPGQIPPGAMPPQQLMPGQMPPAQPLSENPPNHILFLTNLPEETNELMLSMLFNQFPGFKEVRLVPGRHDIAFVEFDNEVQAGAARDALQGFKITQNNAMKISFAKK

| Binder | activity (U1A spliceosomal protein) [% repression] | activity (MS2 coat protein) [% repression] |
| --- | --- | --- |
| B1 | ~40 |  |
| B2 |  | ~70 |
| B3 |  | ~50 |
